Reference: US20120129159A1 (MIT, published 2012)

Experiments:
[1] = target: FKBP-LAP1, P62942
[2] = target: mCherry-FKBP-LAP1 (UniProt P62942 2-108); assay: cell-based or functional assay
[3] = target: FKBP-LAP1 (UniProt P62942 1-108, limits assumed); assay: cell-based or functional assay
Chain of FKBP-LAP1 (P62942 other isoform, or with tags, fused parts or gaps limits assumed): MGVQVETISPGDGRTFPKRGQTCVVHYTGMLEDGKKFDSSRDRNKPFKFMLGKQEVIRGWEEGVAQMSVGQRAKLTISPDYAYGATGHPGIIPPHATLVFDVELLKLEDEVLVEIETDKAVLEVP

Chain of FKBP-LAP1, P62942 (P62942 whole entry, looked up): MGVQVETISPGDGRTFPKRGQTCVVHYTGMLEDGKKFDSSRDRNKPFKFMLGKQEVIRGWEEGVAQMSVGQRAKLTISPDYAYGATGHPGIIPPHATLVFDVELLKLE
Chain of mCherry-FKBP-LAP1 (P62942 other isoform, or with tags, fused parts or gaps): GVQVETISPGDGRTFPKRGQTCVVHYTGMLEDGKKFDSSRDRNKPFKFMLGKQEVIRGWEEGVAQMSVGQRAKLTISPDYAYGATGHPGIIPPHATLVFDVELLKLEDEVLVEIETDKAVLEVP

B1: LplAW37V (protein)
chain: STLRLLISDSYDPWFNLAVEECIFRQMPATQRVLFLVRNADTVVIGRAQNPWKECNTRRMEEDNVRLARRSSGGGAVFHDLGNTCFTFMAGKPEYDKTISTSIVLNALNALGVSAEASGRNDLVVKTVEGDRKVSGSAYRETKDRGFHHGTLLLNADLSRLANYLNPDKKKLAAKGITSVRSRVTNLTELLPGITHEQVCEAITEAFFAHYGERVEAEIISPNKTPDLPNFAETFARQSSWEWNFGQAPAFSHLLDERFTWGGVELHFDVEKGHITRAQVFTDSLNPAPLEALAGRLQGCLYRADMLQQECEALLVDFPEQEKELRELSAWMAGAVR
[1]
  Km of the enzyme for LAP1 (HPLC assay, ligation of coumarin probe to purified FKBP-LAP1): 681 ± 168 µM

B2: FRB-LplAW37V (other)
chain: ILWHEMWHEGLEEASRLYFGERNVKGMFEVLEPLHAMMERGPQTLKETSFNQAYGRDLMEAQEWCRKYMKSGNVKDLTQAWDLYYHVFRRISKSTLRLLISDSYDPWFNLAVEECIFRQMPATQRVLFLVRNADTVVIGRAQNPWKECNTRRMEEDNVRLARRSSGGGAVFHDLGNTCFTFMAGKPEYDKTISTSIVLNALNALGVSAEASGRNDLVVKTVEGDRKVSGSAYRETKDRGFHHGTLLLNADLSRLANYLNPDKKKLAAKGITSVRSRVTNLTELLPGITHEQVCEAITEAFFAHYGERVEAEIISPNKTPDLPNFAETFARQSSWEWNFGQAPAFSHLLDERFTWGGVELHFDVEKGHITRAQVFTDSLNPAPLEALAGRLQGCLYRADMLQQECEALLVDFPEQEKELRELSAWMAGAVR
[2]
  minimum concentration of mCherry-FKBP-LAP1 required for a signal-to-background ratio >2:1: 6 µM

B3: FRB-LplA (other)
chain: ILWHEMWHEGLEEASRLYFGERNVKGMFEVLEPLHAMMERGPQTLKETSFNQAYGRDLMEAQEWCRKYMKSGNVKDLTQAWDLYYHVFRRISKSTLRLLISDSYDPWFNLAVEECIFRQMPATQRVLFLWRNADTVVIGRAQNPWKECNTRRMEEDNVRLARRSSGGGAVFHDLGNTCFTFMAGKPEYDKTISTSIVLNALNALGVSAEASGRNDLVVKTVEGDRKVSGSAYRETKDRGFHHGTLLLNADLSRLANYLNPDKKKLAAKGITSVRSRVTNLTELLPGITHEQVCEAITEAFFAHYGERVEAEIISPNKTPDLPNFAETFARQSSWEWNFGQAPAFSHLLDERFTWGGVELHFDVEKGHITRAQVFTDSLNPAPLEALAGRLQGCLYRADMLQQECEALLVDFPEQEKELRELSAWMAGAVR
[3]
  +/- rapamycin signal-to-background ratio of lipoylation, anti-lipoic acid immunoblot, purified proteins at 10 µM each: > 12 ratio (:1)
  signal-to-background ratio of lipoylation in COS7 cells (+/- 100 nM rapamycin), cell lysis and immunoblot: 15 ratio (:1)
  signal-to-noise ratio of lipoylation in COS-7 cells with 3 minutes of lipoic acid treatment: 2.5 ratio (:1)
